How the values were obtained:
[1] = test system: chick embryo chorioallantoic membrane (CAM); assay: Chick embryo chorioallantoic membrane (CAM) assay of VEGF-mediated angiogenesis; assay type: in vivo, chicken; details: VEGF165 100 ng
Description: The CAM assay was done as described with slight modifications. Fertilized 3-day-old white Leghorn eggs (Sunnyside, Beaver Dam, Wis.) were cracked and embryos with the yolk intact were placed in glass-bottomed Petri dishes. […] Angiogenesis was reported as the angiogenic index (mean number of tertiary branchpoints from experimental conditions minus the mean number of branchpoints from buffer controls with no angiogenic stimulator).

[2] = test system: MDA-MB435 human breast carcinoma cells; assay: Tumors from mice injected with MDA-MB435 cells transfected with TIMP3, von Willebrand factor staining; assay type: in vivo; details: von Willebrand factor immunostaining; TIMP3-transfected tumor cells
Description: Brown reaction product depicts endothelial cells lining the vessels.

[3] = test system: PAE-PDGFR-β cells; assay: Endothelial cell proliferation in response to PDGF-BB; assay type: cell-based, porcine; details: recombinant TIMP3 (1 and 5 μg/ml) or overexpression
[4] = test system: endothelial cells; assay: DNA synthesis ([3H]thymidine uptake) of endothelial cells in response to VEGF165; assay type: cell-based; details: TIMP3 at 1 μg/ml and 10 μg/ml
Protocol: (A) Proliferative response of PAE-KDR cells to VEGF165 (5 ng/ml; left) and VEGF121 (30 ng/ml; right). […] (C) DNA synthesis of endothelial cells in response to VEGF165. […] [3H]thymidine incorporation was measured during the last 5 h of incubation. (D) Analysis of endothelial cell expressing TIMP3. […] Expression of TIMP3 protein was determined by immunoblotting with antibody against TIMP3 (top left). MMP-inhibitory activity was determined by reverse zymography (top right). Corresponding densito-metric quantitation is expressed as arbitrary optical density (OD) units±s.d. (C) DNA synthesis in adenovirus-infected cells in response to VEGF. […] In all proliferation experiments, total number of cells was counted at 48 h. Proliferating cell number is expressed as means±s.e.m. of quadruplicate samples. DNA synthesis data represent the means±s.e.m. of triplicate samples; similar results were obtained in at least 2 different experiments. *, P<0.01.
A modified Boyden chamber assay for migration and proliferation assays were carried out as described.

[5] = molecular target: T1, KDR (Homo sapiens, UniProt P35968); assay: [125I]VEGF binding to the surface of PAE-KDR cells; details: pretreatment with recombinant protein
T1 construct: To determine whether these receptor isoforms represent full-length VEGFR-2; expressed in transfected cells; host or cells: porcine aortic endothelial (PAE) cells
Protocol: (§1) Radioligand binding is expressed as percent binding and is the mean±s.e.m. of triplicate samples. […] All values are expressed as mean±s.e.m. of triplicate samples. […] Binding is expressed as mean±s.e.m.
(§2) Data were analyzed by Scatchard plot analyses.

[6] = molecular target: T2, PDGFR-β (Homo sapiens, UniProt P09619); assay: [125I]PDGF-BB binding to PAE-PDGFR-β cells; details: recombinant TIMP3 or overexpression
T2 construct: expressed in transfected cells; host or cells: porcine aortic endothelial (PAE) cells
Protocol: as §1, §2

[7] = molecular target: T3, VEGF (Homo sapiens, UniProt P15692); assay: Solid-phase direct binding of [125I]VEGF to wells coated with TIMPs
T3 construct: purchased Genentech (gift, not bought)
T3 sequence (P15692 27-191 isoform P15692-4): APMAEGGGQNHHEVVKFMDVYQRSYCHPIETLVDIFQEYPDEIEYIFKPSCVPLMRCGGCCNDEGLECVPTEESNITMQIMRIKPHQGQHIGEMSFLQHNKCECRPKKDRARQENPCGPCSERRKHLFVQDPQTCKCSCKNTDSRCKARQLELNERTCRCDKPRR

[8] = molecular target: T1, KDR; assay: VEGF-stimulated KDR tyrosine phosphorylation in membrane fractions (Western blot); assay type: cell-based; details: WT-TIMP3 cells; data not shown
Protocol: 2 day serum free conditioned medium (CM) was collected from subconfluent cells cultured on six-well plates (Costar). In some cases the CM was further concentrated with heparin-agarose gels (Bio-rad). The cell monolayer was dislodged from the culture plates following a 10 min incubation in Ca2+, Mg2+ free phosphate buffered saline (PBS) containing 2.5 mM EDTA. After several rinses in PBS and water, the ECM was scraped in a small volume of electrophoresis sample buffer without reducing agent for analyses. Plasma membrane (PM) fractions were prepared from cells centrifuged at 500 g and 4° C. for 5 min The supernatant was discarded and the cell pellets were resuspended in PBS containing protease inhibitors, lysed with a 26-gauge syringe needle, and centrifuged at 3,000 g at 4° C. for 15 minutes. The supernatant was centrifuged at […] at 4° C. for 1 hr. The PM pellets were suspended in lysis buffer containing protease inhibitors. In some instances the membrane fraction of cells was prepared using ProteoExtract Subcellular Proteome Extaction Kit (EMD Biosciences, Inc).
Cell fractions or immunoprecipitates of the lysates with the indicated antibodies were subjected to SDS-PAGE. Proteins were detected with either a HRP-conjugated anti-rabbit or anti mouse IgG antibody (Amersham Pharmacia Biotech., Piscataway, N.J.) followed by ECL. […]

[9] = test system: soluble VEGFR-2; assay: Soluble VEGFR-2 (sKDR) in conditioned medium (ELISA); assay type: cell-based, human; details: WT-TIMP3 cells; data not shown
[10] = test system: PAEKDR cells; assay: VEGF-stimulated proliferation ([3H]thymidine) of transfected PAEKDR cells; assay type: cell-based, porcine; details: VEGF 15 ng/ml
Protocol: Cells were seeded at a density of 5000 cells/well in 24 well culture plates and cultured for 24 h in growth medium. […] High molecular weight DNA was precipitated using 5% trichloroacetic acid at 4° C. for 30 min After two washes with ice-cold H2O, 3H radioactivity was solubilized in 1 N NaOH for 20 min at room temperature, acidified by addition of 2 N HCl, and measured using a liquid scintillation counter. Each sample was assayed in triplicate and the assays were repeated at least twice.

[11] = test system: PAEKDR cells; assay: VEGF-stimulated actin reorganization / membrane ruffles; assay type: cell-based, porcine; details: 50 ng/ml VEGF for 15 min
Protocol: For immunostaining, subconfluent cells cultured on Falcon cultureslides (BD, Biosciences) were used. For surface KDR detection, cells were fixed in 1% paraformaldehyde for 10 min at 4° C. Following blocking with 1% BSA cells were incubated with anti-extracellular VEGFR-2 monoclonal antibody for 1 h at room temperature. Surface KDR was detected with biotinylated anti-mouse […] (1:1000) and Texas Red avidin D (1:1500) using standard procedures. […] The cells were fixed with 3.7% paraformaldehyde in PBS for 30 min at 4° C. and permeabilized with 0.2 Triton X-100 for 20 min at room temperature. Following rinsing with PBS the cells were incubated with fluorescein isothiocyanate (FITC)-labeled phalloidin in PBS (0.66 μg/ml, Sigma) for 20 min at room temperature washed with PBS and analyzed by fluorescence microscopy.

T1 sequence (P35968 20-1356): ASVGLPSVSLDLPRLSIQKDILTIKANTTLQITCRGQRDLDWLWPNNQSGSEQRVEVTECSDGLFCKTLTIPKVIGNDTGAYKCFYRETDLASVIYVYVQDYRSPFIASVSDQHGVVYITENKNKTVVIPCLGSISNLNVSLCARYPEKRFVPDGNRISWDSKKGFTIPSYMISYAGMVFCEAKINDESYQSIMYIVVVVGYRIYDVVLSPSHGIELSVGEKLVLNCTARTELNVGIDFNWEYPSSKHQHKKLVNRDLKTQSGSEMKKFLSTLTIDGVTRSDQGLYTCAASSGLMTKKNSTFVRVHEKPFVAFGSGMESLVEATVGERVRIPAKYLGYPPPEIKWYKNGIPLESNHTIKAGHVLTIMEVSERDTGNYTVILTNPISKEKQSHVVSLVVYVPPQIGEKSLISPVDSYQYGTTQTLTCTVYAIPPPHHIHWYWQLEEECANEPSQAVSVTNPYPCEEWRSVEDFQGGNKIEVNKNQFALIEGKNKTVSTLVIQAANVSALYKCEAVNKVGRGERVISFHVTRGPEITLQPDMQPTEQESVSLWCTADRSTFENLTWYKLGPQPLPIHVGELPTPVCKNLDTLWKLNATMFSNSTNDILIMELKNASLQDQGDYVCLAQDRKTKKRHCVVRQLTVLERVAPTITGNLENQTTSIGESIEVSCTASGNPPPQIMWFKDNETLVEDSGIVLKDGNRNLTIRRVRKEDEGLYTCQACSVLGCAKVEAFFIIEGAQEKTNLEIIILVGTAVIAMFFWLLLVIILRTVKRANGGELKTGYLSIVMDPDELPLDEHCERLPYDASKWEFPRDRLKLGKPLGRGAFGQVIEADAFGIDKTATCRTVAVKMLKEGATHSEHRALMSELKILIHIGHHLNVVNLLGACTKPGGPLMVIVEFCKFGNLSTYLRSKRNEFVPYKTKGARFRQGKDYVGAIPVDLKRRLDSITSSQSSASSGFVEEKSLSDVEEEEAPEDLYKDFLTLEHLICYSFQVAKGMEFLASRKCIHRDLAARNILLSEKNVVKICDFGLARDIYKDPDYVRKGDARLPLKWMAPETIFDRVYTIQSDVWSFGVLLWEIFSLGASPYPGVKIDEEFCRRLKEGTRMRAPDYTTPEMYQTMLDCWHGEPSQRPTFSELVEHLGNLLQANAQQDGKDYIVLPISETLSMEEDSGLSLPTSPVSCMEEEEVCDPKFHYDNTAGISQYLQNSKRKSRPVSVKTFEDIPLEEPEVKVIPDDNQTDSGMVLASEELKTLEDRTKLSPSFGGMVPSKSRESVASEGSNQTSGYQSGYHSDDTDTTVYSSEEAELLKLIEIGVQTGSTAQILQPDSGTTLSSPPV
T2 sequence (P09619 33-1106, species assumed): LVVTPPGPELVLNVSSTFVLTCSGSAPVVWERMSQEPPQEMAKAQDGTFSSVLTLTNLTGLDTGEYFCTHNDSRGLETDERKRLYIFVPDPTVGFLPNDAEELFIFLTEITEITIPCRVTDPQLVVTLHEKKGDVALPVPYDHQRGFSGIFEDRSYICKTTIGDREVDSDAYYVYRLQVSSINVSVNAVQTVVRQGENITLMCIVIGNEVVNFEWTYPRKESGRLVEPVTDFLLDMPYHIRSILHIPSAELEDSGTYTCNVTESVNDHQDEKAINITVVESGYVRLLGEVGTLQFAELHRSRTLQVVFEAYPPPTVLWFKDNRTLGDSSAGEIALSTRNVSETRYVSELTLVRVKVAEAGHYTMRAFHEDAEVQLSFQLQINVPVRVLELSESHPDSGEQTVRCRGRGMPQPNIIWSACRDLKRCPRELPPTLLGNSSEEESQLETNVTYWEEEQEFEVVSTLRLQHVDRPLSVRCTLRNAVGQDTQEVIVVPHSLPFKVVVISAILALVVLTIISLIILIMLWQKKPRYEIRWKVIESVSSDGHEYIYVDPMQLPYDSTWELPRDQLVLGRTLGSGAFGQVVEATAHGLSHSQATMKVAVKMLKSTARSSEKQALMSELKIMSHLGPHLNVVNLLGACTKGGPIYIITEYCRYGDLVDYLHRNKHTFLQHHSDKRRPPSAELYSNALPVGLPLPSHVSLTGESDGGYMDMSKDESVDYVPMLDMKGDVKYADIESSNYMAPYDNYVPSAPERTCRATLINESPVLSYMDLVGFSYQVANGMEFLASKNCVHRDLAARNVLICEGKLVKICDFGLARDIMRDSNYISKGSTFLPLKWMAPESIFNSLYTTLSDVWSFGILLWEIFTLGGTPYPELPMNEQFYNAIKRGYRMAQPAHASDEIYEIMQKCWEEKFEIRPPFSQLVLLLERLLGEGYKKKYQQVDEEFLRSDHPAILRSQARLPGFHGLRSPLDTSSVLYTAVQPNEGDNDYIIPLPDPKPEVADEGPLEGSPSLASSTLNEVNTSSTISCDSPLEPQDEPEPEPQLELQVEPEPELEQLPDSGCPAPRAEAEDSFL

B1: TIMP3: tissue inhibitor of metalloproteinases-3; recombinant human form expressed in NSO myeloma cells, or wild-type expressed in transfected cells (protein, listed as Homo sapiens)
chain: MTPWLGLIVLLGSWSLGDWGAEACTCSPSHPQDAFCNSDIVIRAKVVGKKLVKEGPFGTLVYTIKQMKMYRGFTKMPHVQYIHTEASESLCGLKLEVNKYQYLLTGRVYDGKMYTGLCNFVERWDQLTLSQRKGLNYRYHLGCNCKIKSCYYLPCFVTSKNECLWTDMLSNFGYPGYQSKHYACIRQKGGYCSWYRGWAPPDKSIINATDP
CAMs in which VEGF-induced branching and leakage of blood vessels were inhibited ([1]; 0.75 μg/disk, n=8): 75% | CAMs in which VEGF-induced branching and leakage of blood vessels were inhibited ([1]; […], n=10): 90% | neovascularization of tumors expressing TIMP3 vs control tumors [2]: decrease in neovascularization | effect on proliferative response to PDGF-BB [3]: Neither recombinant TIMP3 nor TIMP3 overexpression affected the proliferative response | inhibition of DNA synthesis in response to VEGF165 ([3H]thymidine uptake) [4]: could also inhibit DNA synthesis | IC50 for inhibition of [125I]VEGF binding to PAE-KDR cells [5]: 3.3 to 4.5 µg/mL | inhibition of PDGF-BB binding to PAE-PDGFR-β cells [6]: Neither recombinant TIMP3 nor overexpression of TIMP3 could inhibit binding of PDGF-BB | direct binding of [125I]VEGF to coated TIMP [7]: did not detect direct binding | receptor autophosphorylation after VEGF stimulation [8]: no receptor autophosphorylation was seen | cleaved sVEGFR-2 in the CM, less than mock cells [9]: 10 fold | VEGF-stimulated proliferation of cells expressing TIMP3 variant [10]: dramatic attenuation in the VEGF response | VEGF-stimulated formation of membrane ruffles [11]: did not form membrane ruffles

— patent publication US8431396B2, “Anti-angiogenic peptides” (The Cleveland Clinic Foundation, priority 2003, dated 2013)
